Publication PMC7941734 (Cell reports, 2021)

Target: His6-tagged ASF1A S166E (recombinant) (human, UniProt Q9Y294 1-204, S166E)
Test: pull-down

Sequence of His6-tagged ASF1A S166E (recombinant) (Q9Y294 whole entry S166E): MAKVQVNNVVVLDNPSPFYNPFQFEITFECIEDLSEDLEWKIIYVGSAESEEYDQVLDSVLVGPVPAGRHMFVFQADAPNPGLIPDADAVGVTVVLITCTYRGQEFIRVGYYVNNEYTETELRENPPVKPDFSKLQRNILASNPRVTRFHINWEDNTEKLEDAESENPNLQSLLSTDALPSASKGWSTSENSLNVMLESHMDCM

binding result: binds
B1: GST-tagged FHA domain of MDC1 (aa 1–158) (domain or fragment, human, UniProt Q14676 1-158, looked up)
chain: MEDTQAIDWDVEEEEETEQSSESLRCNVEPVGRLHIFSGAHGPEKDFPLHLGKNVVGRMPDCSVALPFPSISKQHAEIEILAWDKAPILRDCGSLNGTQILRPPKVLSPGVSHRLRDQELILFADLLCQYHRLDVSLPFVSRGPLTVEETPRVQGETQ
